Experimental data published in US20230069835A1 (ACADEMIA SINICA, published 2023).

Target: T1, microsomal triglyceride transfer protein (MTTP), endogenous, in mouse intestinal epithelial cell lysates (mouse, UniProt O08601 22-894, limits assumed)
T1 construct: Endogenous protein in IEC or intestinal cell lysates of control, PRAP1-/- or E85V mice
T1 sequence (looked up): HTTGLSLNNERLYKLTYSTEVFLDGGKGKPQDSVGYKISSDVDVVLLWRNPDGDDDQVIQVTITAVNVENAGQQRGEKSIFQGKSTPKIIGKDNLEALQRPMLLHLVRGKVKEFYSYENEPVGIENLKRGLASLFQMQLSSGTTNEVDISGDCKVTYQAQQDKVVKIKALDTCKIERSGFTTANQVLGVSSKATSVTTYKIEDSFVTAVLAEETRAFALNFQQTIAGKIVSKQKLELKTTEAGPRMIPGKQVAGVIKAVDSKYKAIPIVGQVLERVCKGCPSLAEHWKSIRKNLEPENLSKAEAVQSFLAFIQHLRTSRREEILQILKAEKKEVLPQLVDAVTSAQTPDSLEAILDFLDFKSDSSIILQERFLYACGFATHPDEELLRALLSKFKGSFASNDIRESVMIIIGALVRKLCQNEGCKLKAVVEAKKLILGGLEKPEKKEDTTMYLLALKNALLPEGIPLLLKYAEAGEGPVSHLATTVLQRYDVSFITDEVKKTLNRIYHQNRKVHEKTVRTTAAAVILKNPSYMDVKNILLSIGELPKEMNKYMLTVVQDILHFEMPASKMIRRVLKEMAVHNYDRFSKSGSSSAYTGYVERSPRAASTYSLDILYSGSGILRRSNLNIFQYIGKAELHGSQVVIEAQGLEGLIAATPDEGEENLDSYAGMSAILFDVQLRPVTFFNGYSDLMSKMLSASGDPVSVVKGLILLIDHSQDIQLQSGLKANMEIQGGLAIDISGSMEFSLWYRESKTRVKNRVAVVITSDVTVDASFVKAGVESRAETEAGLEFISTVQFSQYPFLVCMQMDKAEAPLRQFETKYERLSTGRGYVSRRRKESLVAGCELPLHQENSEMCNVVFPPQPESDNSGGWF
Assay: co-immunoprecipitation from IEC lysates with PRAP1- or MTTP-specific antibody, immunoblot
Experimental: FIGS. 2A to 2H depict that PRAP1 formed a complex with microsomal triglyceride transfer protein (MTTP) and was involved in MTTP-mediated lipid transfer according to Example 2 of the present disclosure. FIG. 2A: Total intestinal cell lysates from control (WT), PRAP1^{-/-} (KO) or the E85V mutant mice (E85V) were immunoprecipitated with MTTP- or PRAP1-specific antibody, and the immune complexes (lanes 4-6) along with 1/50 input lysates as indicated were analyzed by immunoblotting using MTTP or PRAP1 antibodies. FIGS. 2B and 2C: Recombinant PRAP1 (rPRAR1, i.e., PRAP1ΔN20; designated as “rWT” in FIGS. 2B and 2C) stimulated the triglyceride (TG; FIG. 2B) and phospholipid (FIG. 2C) transfer activity of MTTP in the intestinal epithelial cells (IECs) purified from PRAP1^{-/-} mice. FIG. 2D: Immunoblotting analysis of MTTP expression in the intestinal cell lysates of control (PRAP1^{+/+}) or PRAP1^{-/-} mice. FIGS. 2E and 2F: MTTP-mediated transfer of TG (FIG. 2E) or phospholipid (FIG. 2F) was determined in PRAP1-deficient (PRAP1^{-/-}) IEC homogenates that had been pre-incubated with 10 μg of recombinant WT PRAP1 or the indicated mutant of PRAP1 (all without N-terminal 20 aa). […] N=3-4 for each panel. *, p<0.05; **, p<0.01; ***, p<0.001; n.s., p>0.05. FIGS. 2B, 2C, 2G and 2H: compared to the activity of PRAP1^{+/+} (bar 1). FIGS. 2E and 2F: compared to the activity in PRAP^{-/-} (bar 2). […]

B1: endogenous E85V mutant PRAP1 in intestinal epithelial cells of E85V knock-in mice (other)
chain: APAHQVPVKTKGKHVFPEQETEKVWDTRALEPLEKDNQLGPLLPEPKQKPAAAEEKRPDAMTWVVTEDILSHLRSPLQGPELDLDSIDHPMSDDVQDEEVPQSRPILYRQVLQGPEEDLDHLAHSMEDS
notes: Endogenous protein in lysates of PRAP1 E85V/E85V mice; The 20-aa signal peptide is called putative; also called E85V mutant of PRAP1; mouse E85V mutant PRAP1
B1: no binding.
